Consider six molecules from patent US20260274928A1 (VIR BIOTECHNOLOGY, published 2026).

Residue numbers refer to the chain shown, from its start. Where two headings read alike, the source gives them in different places.

In assay [1] the target is T1, SARS-CoV-2 Wuhan-Hu-1 RBD (SARS-CoV-2 Wuhan-Hu-1, UniProt P0DTC2 328-531).
T1 construct: range 328-531
Nature of the assay: BLI, Fab on immobilized Wuhan-Hu-1 RBD (FIG. 25).

The target in assay [2] is T2, SARS-CoV S glycoprotein (SARS-CoV, UniProt P59594 14-1255). Nature of the assay: cell-based or functional assay.
Assay [3] deals with T2, SARS-CoV S glycoprotein. Nature of the assay: cell-based or functional assay. This is another data set of the same source.
Assay [4] addresses T2, SARS-CoV S glycoprotein. In words: cell-based or functional assay. This is another data set of the same source.
For assay [5], the target named is SARS-CoV-2 CH.1.1 S glycoprotein (SARS-CoV-2 CH.1.1). Nature of the assay: cell-based or functional assay.
Assay [6] deals with T1, SARS-CoV-2 Wuhan-Hu-1 RBD. Nature of the assay: RBD binding affinity (SPR, see Example 5).
In assay [7] the target is SARS-CoV-2 mouse/rabbit Fc-tagged RBD (SARS-CoV-2, UniProt P0DTC2 319-541).

B1: S2K146 Fab (Fab, V domains shown)
VH: QVQLVESGGVVVQPGGSLRLSCAASGFTFHDHTMHWVRQAPGKGLEWVSLITWNGGTIHYSDSVKGRFTISRDNSKNSLYLQMNSLRTEDTALYYCAKDLGRGGWYLPSDAWGQGTLVTVSS
VL: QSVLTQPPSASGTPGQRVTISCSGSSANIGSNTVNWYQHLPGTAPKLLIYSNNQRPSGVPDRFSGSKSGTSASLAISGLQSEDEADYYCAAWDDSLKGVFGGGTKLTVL
As to B1, the binding result in assay [1] was “binds”.

B2: S2V29-v37.2 (antibody, V domains shown)
VH: EVQLVESGGSVVQPGRALRLSCAASGITFSSFGMYWVRQAPGKGLEWLGYIAYDGSDTYYADSVKGRFTISRDNSKNTLYLQMNSLRIEDTAVYYCAKDYYPLLSYYYGLDVWGQGTTVTVSS
VL: QSVLTQPRSVSGSPGQSVTISCTGTSSDVGAYNYVSWYQQHPGKAPKFMIYDVDQRPSGVPDRFSGSKSGNTASLIISGLQAEDEADYYCSSYAGSYIWVFGGGTQLTVL
As for B2, the “fold improvement in neutralization” value with SARS-CoV S glycoprotein [2] came to 100 fold. Moreover, in the assay with SARS-CoV S glycoprotein [3], the “FC IC50 par/IC50 Var” value turned out to be 21.7 fold and the “IC50” value was 0.0077 µg/mL. In addition, in the assay with SARS-CoV S glycoprotein [4], the “FC vs v1.2” value came to 116 fold and the “IC50” value was determined as 6 ng·mL. Moreover, in assay [5], the “FC vs S2V29-v1.2” value was found to be 1.3 fold and the “IC50” value was 0.0089 µg/mL. Further, binding in assay [6] was characterised by a dissociation constant (Kd) of 160 pM.

B3: S2V29-v1.2 (antibody, V domains shown)
VH: B2 VH with Y50V, D57N
VL: B2 VL
Take B3: the “IC50” value worked out at 689 ng·mL with SARS-CoV S glycoprotein [4] and 0.0112 µg/mL in assay [5]. Also, the Kd in assay [6] was below 20 pM.

B4: S2V29-v1.1 (antibody, V domains shown)
VH: B2 VH with Y50V, D57N
VL: B2 VL with S91C
B4: in assay [7], the “IC50 (read off the curve)” value is around 0.02 µg/mL.

B5: S3I2 (antibody, V domains shown)
VH: EVQLVETGGGLIQPGGSLTLSCAASGLVVSYNYMTWVRQAPGKGLEWLSVIYAGGSTFYADSVKGRFTVSRDNSNNTLYLQMNNLRAEDTAVYFCARWGQVRFTSEEAYYKYGLDVWGQGTTVTVSS
VL: DIQLTQSPSFLSASVGDRVTITCRASQGISNYLAWYQQRPGKAPKLLIFTASTLQSGVSSRFSGSGSGTEFTLTISSLQPEDLATYYCQQLNSNLQGTFGQGTRVEIK
In the case of B5, the “IC50 (read off the curve)” value in assay [7] was around 0.03 µg/mL.

B6: S3L17 (antibody, V domains shown)
VH: EVQLVESGGGLVQPGGSLRLSCAASEIIVSSNYMNWVRQAPGKGLEWVSVIYAGGSTFYADSVRGRFTISRDNSKNTLYLQMNSLRPDDTAIYYCARDLGPWGMDVWGQGTTVTVSS
VL: DIQMTQSPSSLSASVGDRVAITCRASHGINNDLAWYQQKPGKVPKLLIYAASTLQSGVPSRFSGSGSGTDFTLTISSLQPEDVATYYCQHYSSDPRFTFGPGTKVDIK
Take B6: the “IC50 (read off the curve)” value in assay [7] is around 0.02 µg/mL. Besides, the Kd in assay [6] was 70 pM.
